Measurements reported in patent publication US20240117030A1 (Pfizer, published 2024).
Substitutions are numbered along the chain they refer to.

T1: human IL-4 (human, UniProt P05112 25-153)
T1 sequence (looked up): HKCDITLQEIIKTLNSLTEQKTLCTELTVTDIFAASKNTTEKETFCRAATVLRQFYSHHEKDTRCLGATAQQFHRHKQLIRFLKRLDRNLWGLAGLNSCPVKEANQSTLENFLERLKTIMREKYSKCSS

T2: recombinant human IL-33 (R&D Systems 3625-IL), reduced with DTT (human, UniProt O95760 112-270, limits assumed)
T2 sequence (looked up): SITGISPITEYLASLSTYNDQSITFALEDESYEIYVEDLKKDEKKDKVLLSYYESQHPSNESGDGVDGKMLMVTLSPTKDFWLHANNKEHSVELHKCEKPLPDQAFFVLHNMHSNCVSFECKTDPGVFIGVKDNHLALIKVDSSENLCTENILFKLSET

T3: human IL-4 (human, UniProt P05112 25-153)
T3 sequence (looked up): T1 sequence (looked up)

B1: IL13433-0607 (trispecific antibody, human IgG1, kappa)
heavy: EVQLVESGGGLVQPGGSLRLSCAASGFTFSSYAMSWVRQAPGKGLEWVASISTGDTTYYPDSVKGRFTISRDNAKNSLYLQMNSLRAEDTAVYYCARNEGYYFGLTQWGRGTLVTVSSASTKGPSVFPKAPSSKSTSGGTAALGCLVKDYFPEPVTVSWNSGALTSGVHTFPAVLQSSGLYSLSSSVTVPSSSLGTQTYICNVNHKPSNTKVDKKVEPKSCDKTHTCPPCPAPEAAGAPSVFLFPPKPKDTLMISRTPEVTCVVVDVSHEDPEVKFNWYVDGVEVHNAKTKPREEQYNSTYRVVSVLTVLHQDWLNGKEYKCKVSNKALPAPIEKTISKAKGQPREPQVCTLPPSREEMTKNQVSLWCLVKGFYPSDIAVEWESNGQPENNYKTTPPVLDSDGSFFLYSKLTVDKSRWQQGNVFSCSVLHEALHSHYTQKSLSLSPGK
chain 1: DIQMTQSPSSLSASVGDRVTITCRASQPISKHLDWYQQKPGKAPKLLIYFTNNLQTGVPSRFSGSGSGTDFTLTISSLQPEDFATYYCFQYNQGWTFGGGTKVEIKRTVAAPSVFIFPPSDEQLKSGTASVVCLLNNFYPREAKVQWKVDNALQSGNSQESVTEQDSKDSTYSLSSTLTLSKADYEKHKVYACEVTHQGLSSPVTKSFNRGECGGGGSEVTLRESGPALVKPTQTLTLTCTFSGFSLSNFGEGLSWIRQPPGKGLEWLAHIYWDDDKRYSTSLKTRLTISKDTSRNQVVLTMTNMDPVDTATYYCARRETVFYWYFDVWGQGTTVTVSSASTKGPSVFPEAPSSKSTSGGTAALGCLVKDYFPEPVTVSWNSGALTSGVHTFPAVLQSSGLYSLGSVVTVPSSSLGTQTYICNVNHKPSNTKVDKKVEPKSCDKTHTCPPCPAPEAAGAPSVFLFPPKPKDTLMISRTPEVTCVVVDVSHEDPEVKFNWYVDGVEVHNAKTKPREEQYNSTYRVVSVLTVLHQDWLNGKEYKCKVSNKALPAPIEKTISKAKGQPREPQVYTLPPCREEMTKNQVSLSCAVKGFYPSDIAVEWESNGQPENNYKTTPPVLDSDGSFFLVSKLTVDKSRWQQGNVFSCSVLHEALHSHYTQKSLSLSPGK
light 1: DIQMTQSPSSLSASVGDRVTITCRASESVDHFGWSLVHWYQQKPGKAPKLLIYRADSLETGVPSRFSGSGSGTDFTLTISSLQPEDFATYYCQQSNEDPWTFGGGTKVEIKRTVAAPSVFIFPPSDEQLKSGTASVSCLLNNFYPREAKVQWKVDNALQSGNSQESVTEQDSKDSTYSLDSTLTLSKADYEKHKVYACEVTHQGLSSPVTKSFNRGEC
light 2: DIQMTQSPSSLSASVGDRVTITCRASQSVDEEGDSYMNWYQQKPGKAPKLLIYAASNLESGVPSRFSGSGSGTDFTLTISSLQPEDFATYYCQQSHKDPPTFGGGTKVEIKRTVAAPSVFIFPPSDEQLKSGTASVSCLLNNFYPREAKVQWKVDNALQSGNSQESVTEQDSKDSTYSLKSTLTLSKADYEKHKVYACEVTHQGLSSPVTKSFNRGEC
chain 2: EVQLVESGGGLVQPGGSLRLSCAASGFTFSSYWMYWVRQAPGKGLEWVAAITPNAGEDYYPESVKGRFTISRDNAKNSLYLQMNSLRAEDTAVYYCARGHYYYTSYSLGYWGQGTLVTVSSASTKGPSVFPLAPSSKSTSGGTAALGCLVKDYFPEPVTVSWNSGALTSGVHTFPAVLQSSGLYSLSSVVTVPSSSLGTQTYICNVNHKPSNTKVDKKVEPKSC
B2: IL33-0713 (antibody, IgG1, V domains shown)
VH: EVQLVESGGGLVQPGGSLRLSCAASGFTFSSYWMYWVRQAPGKGLEWVAAITPNKGVDYYPESVKGRFTISRDNAKNSLYLQMNSLRAEDTAVYYCARGHYYYTSYSLGYWGQGTLVTVSS
VL: DIQMTQSPSSLSASVGDRVTITCRASQPISKHLDWYQQKPGKAPKLLIYFTKNLVTGVPSRFSGSGSGTDFTLTISSLQPEDFATYYCFQYNQGWTFGGGTKVEIK
B3: IL33-0714 (antibody, IgG1, V domains shown)
VH: B2 VH
VL: B2 VL with V55K
B4: IL33-0715 (antibody, IgG1, V domains shown)
VH: B2 VH
VL: B2 VL with V55Q, T56S
B5: IL4-0002 (antibody, human IgG1, kappa)
heavy: EVTLRESGPALVKPTQTLTLTCTFSGFSLSNFGEGLSWIRQPPGKGLEWLAHIYWDDDKRYNPSLKSRLTISKDTSRNQVVLTMTNMDPVDTATYYCARRETVFYWYFDVWGQGTTVTVSSASTKGPSVFPLAPSSKSTSGGTAALGCLVKDYFPEPVTVSWNSGALTSGVHTFPAVLQSSGLYSLSSVVTVPSSSLGTQTYICNVNHKPSNTKVDKKVEPKSCDKTHTCPPCPAPEAAGAPSVFLFPPKPKDTLMISRTPEVTCVVVDVSHEDPEVKFNWYVDGVEVHNAKTKPREEQYNSTYRVVSVLTVLHQDWLNGKEYKCKVSNKALPAPIEKTISKAKGQPREPQVYTLPPSREEMTKNQVSLTCLVKGFYPSDIAVEWESNGQPENNYKTTPPVLDSDGSFFLYSKLTVDKSRWQQGNVFSCSVMHEALHNHYTQKSLSLSPGK
light: B1 light 2 with R24K, E32D, H96N, K97E, S137V, K180S
B6: IL13-0001 (antibody, human IgG1, kappa, V domains shown)
VH: EVQLVESGGGLVQPGGSLRLSCAASGFTFSSYAMSWVRQAPGKGLEWVASISSGDTTYYPDSVKGRFTISRDNAKNSLYLQMNSLRAEDTAVYYCARNEGYYFGLTLWGQGTLVTVSS
VL: DIQMTQSPSSLSASVGDRVTITCKASESVDHFGWSLVHWYQQKPGKAPKLLIYRASNLESGVPSRFSGSGSGTDFTLTISSLQPEDFATYYCQQSNEDPWTFGGGTKVEIKR
B7: IL413TSLP-0248 (other)
heavy: B1 heavy with T53S, Q107L, R110Q, L429M, S435N
chain 1: SYVLTQPPSVSVAPGQTARITCGGNNLGSKSVHWYQQKPGQAPVLVVYDDSDRPSWIPERFSGSNSGNTATLTISRGEAGDEADYYCQVWDSSSDHVVFGGGTKLTVLGQPKAAPSVTLFPPSSEELQANKATLVCLISDFYPGAVTVAWKADSSPVKAGVETTTPSKQSNNKYAASSYLSLTPEQWKSHRSYSCQVTHEGSTVEKTVAPTECSGGGGSEVTLRESGPALVKPTQTLTLTCTFSGFSLSNFGEGLSWIRQPPGKGLEWLAHIYWDDDKRYNPSLKSRLTISKDTSRNQVVLTMTNMDPVDTATYYCARRETVFYWYFDVWGQGTTVTVSSASTKGPSVFPEAPSSKSTSGGTAALGCLVKDYFPEPVTVSWNSGALTSGVHTFPAVLQSSGLYSLGSVVTVPSSSLGTQTYICNVNHKPSNTKVDKKVEPKSCDKTHTCPPCPAPEAAGAPSVFLFPPKPKDTLMISRTPEVTCVVVDVSHEDPEVKFNWYVDGVEVHNAKTKPREEQYNSTYRVVSVLTVLHQDWLNGKEYKCKVSNKALPAPIEKTISKAKGQPREPQVYTLPPCREEMTKNQVSLSCAVKGFYPSDIAVEWESNGQPENNYKTTPPVLDSDGSFFLVSKLTVDKSRWQQGNVFSCSVMHEALHNHYTQKSLSLSPGK
light 1: B1 light 1 with R24K, D56S, S57N, T60S
light 2: B1 light 2 with R24K, E32D, H96N, K97E
chain 2: not shown
B8: IL413TSLP-0250 (other)
heavy: B5 heavy with L132E, S187G, S358C, T370S, L372A, Y411V
chain 1: SYVLTQPPSVSVAPGQTARITCGGNNLGSKSVHWYQQKPGQAPVLVVYDDSDRPSWIPERFSGSNSGNTATLTISRGEAGDEADYYCQVWDSSSDHVVFGGGTKLTVLGQPKAAPSVTLFPPSSEELQANKATLVCLISDFYPGAVTVAWKADSSPVKAGVETTTPSKQSNNKYAASSYLSLTPEQWKSHRSYSCQVTHEGSTVEKTVAPTECSGGGGSEVQLVESGGGLVQPGGSLRLSCAASGFTFSSYAMSWVRQAPGKGLEWVASISSGDTTYYPDSVKGRFTISRDNAKNSLYLQMNSLRAEDTAVYYCARNEGYYFGLTLWGQGTLVTVSSASTKGPSVFPKAPSSKSTSGGTAALGCLVKDYFPEPVTVSWNSGALTSGVHTFPAVLQSSGLYSLSSSVTVPSSSLGTQTYICNVNHKPSNTKVDKKVEPKSCDKTHTCPPCPAPEAAGAPSVFLFPPKPKDTLMISRTPEVTCVVVDVSHEDPEVKFNWYVDGVEVHNAKTKPREEQYNSTYRVVSVLTVLHQDWLNGKEYKCKVSNKALPAPIEKTISKAKGQPREPQVCTLPPSREEMTKNQVSLWCLVKGFYPSDIAVEWESNGQPENNYKTTPPVLDSDGSFFLYSKLTVDKSRWQQGNVFSCSVMHEALHNHYTQKSLSLSPGK
light 1: B1 light 2 with R24K, E32D, H96N, K97E
light 2: B1 light 1 with R24K, D56S, S57N, T60S
chain 2: not shown

Experiments:
Assay in all cases: cell-based or functional assay
human IL-4 [1] = biological target: T1, human IL-4
[2] = biological target: T2, recombinant human IL-33 (R&D Systems …)
human IL-4 [3] = biological target: T3, human IL-4; remark: listed apart in the source
human IL-13 = human IL-13 (human, UniProt P35225 35-146)
Chain of human IL-13 (P35225 35-146 limits assumed): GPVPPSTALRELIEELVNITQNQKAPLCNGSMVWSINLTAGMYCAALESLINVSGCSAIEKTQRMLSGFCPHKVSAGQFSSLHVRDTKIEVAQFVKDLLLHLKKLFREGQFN

Row | Binder | IC50 [nM] versus reduced human IL-33 (R&D), IC50 (AVE) [2] [nM] | a-hIL-4 bioassay IC50, pM) (human IL-4 [3]) [pM] | a-hIL-13 bioassay (IC50, pM) (human IL-13) [pM] | further results
1 | B1 |  |  |  | fold loss in IL-4 neutralization (CD23 bioassay) relative to IL13433-0006 (human IL-4 [1]): ~6.5 fold
2 | B2 | 0.012 |  |  | 
3 | B3 | 0.009 |  |  | 
4 | B4 | 0.012 |  |  | 
5 | B5 |  | 2.39 |  | 
6 | B6 |  |  | 5.79 | 
7 | B7 |  | 5.11 | 15.6 | 
8 | B8 |  | 3.68 | 102 | 
